Experimental data from article PMC9907207 (Nature Communications, 2023).

B1: GAR05 Fab (Fab, V domains shown)
VH: EVQLVQSGGDLVQPGGSLRLSCAVSGFTVSRNYMTWVRQAPGRGLEWVSLIYPGGSAFYADSVKGRFTISRDNSKNTLYLQMNSLRVEDTAVYYCARDPVSTGHYHDSDYWGQGTLVTVSS
VL: DIQMTQSPSALSASVGDRVTITCQASQDINKFLNWYQQKPGKAPKLLIYDASNLETGVPSRFSGGGSGTDFTFTISSLQPEDIATYYCHQYDNLPRTFGQGTKVELK
notes: also called GAR05 Fab fragment; source: ExpiCHO, purified (Talon resin, S200 SEC)
B2: GAR03 Fab (Fab, V domains shown)
VH: QVQLVQSGAEVKKPGASVKVSCKASGYTFSSYDINWVRQAPGQGLEWMGWMSPNSGNTGYAQKFQGRVTMTRSTSMSTAYMELSSLRSEDTAVYFCARMSSSLTNYLDYWGQGTLVTVSS
VL: SYVLTQPPSVAVAPGQTARIRCGENDIGSKNVHWYQQKSGQAPVLVVYDDSDRPSGIPERFSGSNSGNTATLTISRVEAGDEADYYCQVWDSTGDHPDVVFGGGTKLTVL
notes: also called GAR03 antibody Fab; source: ExpiCHO, purified (Talon resin, S200 SEC)

Target: T1, D614G VFLIP spike trimer (SARS-CoV-2, ancestral with D614G, VFLIP …, stabilised)
T1 construct: also called stabilized D614G ancestral trimeric spike ("VFLIP"); trimeric spike
Experiment: cryo-EM structure
Settings: both partners purified

| Binder | stoichiometry N |
| --- | --- |
| B1 | 3 Fabs per spike trimer |
| B2 | 1 Fab per spike trimer |
